# Entries after “also recorded” stand apart in the source; their conditions may differ.
# Legend:
# DRB1*0101 (DR1) = DRB1*0101 (DR1) (Homo sapiens, UniProt P01903+P01911, A100R/D57E/F55L/F60I/F76Y/I96L/L162R/M171V/P40L/Q125E/R42F/V115G/Y59C); type: binding
# DRB1*0301 (DR3) = DRB1*0301 (DR3) (Homo sapiens, UniProt P01903+P01911, A100K/A102G/A103R/A169T/F55Y/I96L/K41T/L162R/M171V/P40S/Q125H/Q178H/Q39Y/R42S/S66N/T106N/T262R/W38E/Y61H); type: binding
# DRB1*0401 (DR4) = DRB1*0401 (DR4) (Homo sapiens, UniProt P01903+P01911, A100K/A169T/F76Y/I96L/K127E/L162R/M171V/N62H/P40V/Q125Y/R42H/S133A/S149N/S66Y/V115G/V209L/W38E); type: binding
# DRB1*0701 (DR7) = DRB1*0701 (DR7) (Homo sapiens, UniProt P01903+P01911, A100R/A102G/A103Q/D57E/D86V/E43K/F76Y/K127E/L162R/M171V/P40G/Q125H/Q99D/R33Q/R42Y/R54Q/S133A/S66F/T210M/V115G/Y107V/Y59L/Y89S); type: binding
# DRB1*1101 (DR11) = DRB1*1101 (DR11) (Homo sapiens, UniProt P01903+P01911, A100R/A169T/A87E/I96F/K41T/L162R/M171V/P40S/Q125H/Q178H/Q39Y/Q99D/R42S/S66Y/T262R/V115G/W38E); type: binding
# DRB1*1301 (DR13) = DRB1*1301 (DR13) (Homo sapiens, UniProt P01903+P01911, A100E/A169T/K41T/L162R/M171V/P40S/Q125H/Q178H/Q39Y/Q99D/R42S/S66N/T262R/W38E/Y61H); type: binding
# DRB1*1501 (DR15) = DRB1*1501 (DR15) (Homo sapiens, UniProt P01903+P01911); type: binding
# [1] = system: CD4^+ T cells of HLA class II transgenic mice; type: cell-based
# HLA-DR molecules = type: binding, human
Sequence,"Relative binding affinity of peptide to HLA-DR molecules, DR1 (DRB1*0101 (DR1))","Relative binding affinity of peptide to HLA-DR molecules, DR3 (DRB1*0301 (DR3))","Relative binding affinity of peptide to HLA-DR molecules, DR4 (DRB1*0401 (DR4))","Relative binding affinity of peptide to HLA-DR molecules, DR7 (DRB1*0701 (DR7))","Relative binding affinity of peptide to HLA-DR molecules, DR11 (DRB1*1101 (DR11))","Relative binding affinity of peptide to HLA-DR molecules, DR13 (DRB1*1301 (DR13))","Relative binding affinity of peptide to HLA-DR molecules, DR15 (DRB1*1501 (DR15))",HLA-restriction based on CD4 T cell response class II HLA transgenics after priming with LF [1],Binding across all HLA-DR alleles assayed (HLA-DR molecules),CD4 T cell response in LF immunized HLA transgenics [1],"Strong relative binding affinity of peptide to HLA-DR molecules, DR1 (DRB1*0101 (DR1))","Strong relative binding affinity of peptide to HLA-DR molecules, DR3 (DRB1*0301 (DR3))","Strong relative binding affinity of peptide to HLA-DR molecules, DR4 (DRB1*0401 (DR4))","Strong relative binding affinity of peptide to HLA-DR molecules, DR7 (DRB1*0701 (DR7))","Strong relative binding affinity of peptide to HLA-DR molecules, DR11 (DRB1*1101 (DR11))","Strong relative binding affinity of peptide to HLA-DR molecules, DR13 (DRB1*1301 (DR13))","Strong relative binding affinity of peptide to HLA-DR molecules, DR15 (DRB1*1501 (DR15))","Binding to HLA-DR1, DR4 and DR15 (HLA-DR molecules)"
VENTEKALNVYYEIGKILSR,1,418,81,36,0.03,71,0.2,DR1,strong to moderate binding across all seven HLA-DR alleles,–,–,–,–,–,–,–,–,–
AKAFAYYIEPQHRDVLQLYA,115,39,51,97,4,9,8,DR1,strong to moderate binding across all seven HLA-DR alleles,–,–,–,–,–,–,–,–,–
NKALGLPKYTKLITFNVHNR,0,250,10,4,2,19,3,DR1,strong to moderate binding across all seven HLA-DR alleles,–,–,–,–,–,–,–,–,–
PESRSILLHGPSKGVELRND,7,354,22,51,120,21,17,DR15,strong to moderate binding across all seven HLA-DR alleles,elicited a T cell response in a single HLA transgenic strain; also recorded: immunodominant epitopes in HLA-DR15 transgenics,–,–,–,–,–,–,–,–
LENGKLILQRNIGLEIKDVQI,0,4,7,1,3,9,0.04,"DR1, DR4, DR15",–,"identified in HLA-DR1, HLA-DR4 and HLA-DR15 transgenic lines; also recorded: immunogenic in all three HLA-DR transgenic strains",+ (key: +: Strong binding affinity was defined in this study as a relative activity <10),+ (key: +: Strong binding affinity was defined in this study as a relative activity <10),+ (key: +: Strong binding affinity was defined in this study as a relative activity <10),+ (key: +: Strong binding affinity was defined in this study as a relative activity <10),+ (key: +: Strong binding affinity was defined in this study as a relative activity <10),+ (key: +: Strong binding affinity was defined in this study as a relative activity <10),+ (key: +: Strong binding affinity was defined in this study as a relative activity <10),strong binders to all three HLA-DR alleles
QHRDVLQLYAPEAFNYMDKF,146,3,100,83,5,267,0.3,"DR1, DQ8",strong to moderate binding across all seven HLA-DR alleles,–,–,–,–,–,–,–,–,–
EYIRIDAKVVPKSKIDTKIQ,3,1,15,12,21,24,156,DRI,strong to moderate binding across all seven HLA-DR alleles,elicited a T cell response in a single HLA transgenic strain,–,–,–,–,–,–,–,–
EAQLNINQEWNKALGLPKYT,104,173,43,68,100,17,1,"DR15, DQ8",strong to moderate binding across all seven HLA-DR alleles,DQB1*0302 restricted,–,–,–,–,–,–,–,–
QSDLIKKVTNYLVDGNGRFV,12,26,15,4,139,38,0.2,DR15,strong to moderate binding across all seven HLA-DR alleles,–,–,–,–,–,–,–,–,–
YGKDALLHEHYVYAKEGYEP,199,>76,168,441,9,6,4000,DQ8,–,–,–,–,–,–,–,–,–,–
KLITFNVHNRYASNIVESAY,35,0.4,3,72,7,0.5,5,"DR1, DR4",–,–,–,–,–,–,–,–,–,–
